Here are results for 21 variants from the RNAGym collection of RNA variant scans (doi:10.1073/pnas.2313332121).

B1: TPR t1 (parent)
chain: GACCAAUCUGCCCUCAGAGCUCGAGAACAUCUUCGGAUGCAGAGGAGGCAGGCUUCGGUGGCGCGAUAGCGCCAACGUCCUCAACCUCCAAUGCAUCCCACCACAUGAUGAUGCCUGAAGAGCCUUGGUUUUUUG

In the series the parent is B1. Nature of the series: polymerase ribozyme fitness, log enrichment relative to wild type (log ratio); higher = more active; in vitro selection for triplet polymerase activity. The method, boiled down: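 In triplicate, a single round of in vitro selection was run on each mutant library, PCR-built and transcribed, covering one subunit of a heterodimeric triplet polymerase ribozyme. Frozen incubation at −7 °C followed annealing with a biotinylated primer, partner subunit and triplets, and extended constructs were then gel-excised, streptavidin-captured and taken through RT-PCR. Fitness is the logarithm of genotype enrichment over wild-type enrichment, from inverse-variance-weighted replicate averages of Illumina-sequenced inputs and outputs. […] only genotypes with ≥10 input reads and ≥1 read per output were kept.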
For the variant GGCCAAUCUGCCCUCAGAGCUCGAGAACAUCUUCGGAUGCAGAGGAGGCAGGCUUCGGUGACGCGAUAGCGCCAACGUCCUCAACCUCCAAUGCAUCCCACUACAUGAAGAUGCCUGAAGAGCCUUGGUUUUUUG [A2G G61A C102U U109A], the “polymerase ribozyme fitness (log ratio)” value is -5.41.
Next, GGCCAAUCUGCCCUCAGAGCUCGAGAACAUCUUCGGAUGCAGAGGAGGCAGACUUCGGUGGCGCGAUAGCGCCAACGUCCUCAAUCUCCAAUGCAUCCCACCACAUGAUGAUGCCUGAAGAGCCUUGGUUUUUUG [A2G G52A C85U]: -1.87; GGCCAAUCUGCCCUCAGAGCUCGAGAACAUCUUCGGAUGCAGAGGAGGCAGGCUUCGGUGGCGCGAUAGCGCCAACGUCCUCAACCUCCAAUGCAUCCCACCACAUGAUGAUGCCUGAAAAGCCUUGGCUUUUUU [A2G G120A U129C G135U]: -1.81; GGCCAAUCUGCCCUCAGAGCUCGAGAACAUCUUCGGAUGCAGAGGAGGCAGGCUUCGGUGGCGCGAUAGCACCAACGUCCUCAACCUCCAAUGCAUCCCACCACAUGAUGAUGCCUGAAGAGCCUUGGUUUUUUG [A2G G71A]: -0.784.
Next, GGCCAAUCUGCCCUCAGAGCUCGAGAACAUCUUCGGAUGCAGAGGAGGCAGGCUUCGGUGGCGCGAUAGCGCCAACGUCCUCAACCUCCAAUGCAUCCCACCACAUGAUGAUGCCUAAAGAGCCUUGGUUUUUUG [A2G G117A]: -1.6.
Take GGCCAAUCUGCCCUCAGAGCUCGAGAACAUCUUCUGAUGCAGAGGAGGCAGGCUUCGGUGGCGCGAUAGCGCCAACGUCCUCAACCUCCAAUGCAUCCCACCACAUGAUGAUGCCUGAAGAGCAUUGGUUUUUUG [A2G G35U C124A]: the “polymerase ribozyme fitness (log ratio)” value was -4.09.
Under GGCCAAUCUGCCCUCACAGCUCGAGAACAUCUUCGGAUGCAGAGGAGGCAGGCUUUGGUGGCGCGAUAGCGCCAACGUCCUCAACCUCCAAUGCAUCCCACCACAUGAUGAUGCCUGAAGAGCCUUGGUUUUUUG [A2G G17C C56U] stands -4.71; under GGCCAAUCUGCCCUCAGAGCUCGAGAACAUCUUCGAAUGCAGAGGAGGGAGGCUUCGGUGGCGCGAUAGCGCCAACGUCCUCACCCUCCAAUGCAUCCCACCACAUGAUGAUGCCUGAAGAGACUGGGUUUUUUG [A2G G36A C49G A84C C123A U126G], -2.7.
Take GGCCAAUCUGCCCUCAGAGCUCGAGAACAUCUUCGGAUGCAGAAGAGGCAGGCUUCGGUGGCGCGAUAGCGCCAACGUCCUCAACCUCCAAUGCAUCCCACCACAUGAUGAUGCCUGAAGAGCCUUGGUUUUUUG [A2G G44A]: the “polymerase ribozyme fitness (log ratio)” value was -0.766.
For the variant GGCCAAUCUGCCCUCAGAGCUCGAGAACAUCUUCGGAUGCAGAGGAGGCAGGCUUCGGUGGCCCGAUAGCGCCCACGUCCUCAACCCCCAAUGCAUCCCUCCACAUGAUGAUGCCUGAAGAGCCUUGGUUUUUUG [A2G G63C A74C U87C A100U], the “polymerase ribozyme fitness (log ratio)” value is -4.51.
For the variant GGCCAAUCUGCCCUCAGAGCUCGAGAACAUCUUCGGAUGCAGAGGAGGCAGGCUUCGGUGGCGCGAUAACGCCAACGUCCUCAACCUCCAAUGCAUCCCACCACAUGAUGAUGCCUGAAGAGCCUUGGUUUUUUG [A2G G69A], the “polymerase ribozyme fitness (log ratio)” value was -2.65.
Next, GGCCAAUCUGCCCUCAGAGCUCGAGAACAUCUUCGGAUGCAGAGGAGGCAGGCUUCGGUGGCGCGAUAGCGCCAACGUCCUCAACCUCCAAUACAUCCCACCACAUGAUGAUGCCUGAAUAGCCUUGGUUUUUUG [A2G G93A G120U]: -0.278.
In the case of GGCCAAUCUGCCCUCAGAGCUCGAGAACAUCUUCGGAUGCAGAGGAGGCAGGCUUCAGUGACGCGAUAGCGCCAACGUCCUCAACCUCCAAUGCAUCCCACCACAUGAUGAUGCCUUAAGAGCCUUGGUUUUUUG [A2G G57A G61A G117U], the “polymerase ribozyme fitness (log ratio)” value was -3.55.
Under GGCCAAUCUGCCCUCAGAGCUCGAGAACAUCUUCGGAUGCAGAGGAGGCAGGCUUCGGUGGCGCGAUAGCGCCAACUUCCUGAACCUCCAAUGCAUCCCACCACAUGAUGAUGCCUGAAGAGCCUUGGUUUUUUG [A2G G77U C82G] stands -0.807.
Under GGCCAAUCUGCCCUCAGAGCUCGAGAACAUCUUCGGAUGCAGAGGAGGCAGGCUUCGGUGCCGCGAUAGCGCCAACGUCCUCAACCUUCAAUGCAUCCCACCACAUGAUGAUGCCUGAAGAGCAUUGGUUUUUUG [A2G G61C C88U C124A] stands -0.51.
Next, GGCCAAUCUGCCCUCAGAGCUCGAGAACAUCUUCGGAUGCAGAGGAGGCAGGCUUCGGUGGCGCGAUAGCGCCAACGUCCUCAACCUCCAAUGCAUCCCACCACAUGAUGAUGCCUGAACAGCCUUGGUUUUUUG [A2G G120C]: 1.19; GGCCAAUCUGCCCUCAGAGCUCGAGAACAUCUUCGGAUGCAGAGGAAGCAGGCUUCGGUGGCGCGAUAGCGGCAACGUCCUCAACCUCCAAUGCAUCCCACCACAUGAUGAUGCCUGAAGAGCCUUGGUUUUUUG [A2G G47A C72G]: -0.743; GGCCAAUCUGCCCUCAGAGCUCGAGAACAUCUUCGGAUGCAGAGUAGGCAGGCUUCGGUGGCGCGAUAGCGCCAACGUCCUCAACCUCCAAUGCAUCCCACCACAUGAUGAUGCCUGAAGAGCCUUGGUUUUUUG [A2G G45U]: -1.83.
Take GGCCAAUCUGCCCUCAGAGCUCGAGAACAUCUUCGGAUGCAGAGAAGGCAGGCUUCGGUGGCUCGAUAGCGCCAACGUCCUCAACCUCCAAUGCAUCCCACCACAUGAUGAAGCCUGAAGAGCCUUGGUUUUUUG [A2G G45A G63U U112A]: the “polymerase ribozyme fitness (log ratio)” value was -0.348.
Under GGCCAAUCUGCCCUCAGAGCUCGAGAACAUCUUCGAAUGCAGAGGAGGGAGGCUUCGGUGGCGCGAUAUCGCCAACGUCCUCAACCUCCGAUGCAUUCCACCACAUGAUGAUGCCUGAACAGCCUUGGUUUUUUG [A2G G36A C49G G69U A90G C97U G120C] stands 0.751; under GGCCAAUCUGCCCUCAGAGCUCGAGAACAUCUUCGGAUGCAGAGGAGGCAGGCUUCGGUGGCGCGAUAGCGCCAACGUCCUCAACCUCCAAUGCAUCCCACCACAUGAUGAUGCCUGAAGAGCCUUGGUUUUUUU [A2G G135U], -0.44.
